Experimental data as given in US20060134801A1, “Methods and compositions involving MDA-7” (Board of Regents, The University of Texas System, priority 2003, published 2006).

Columns and labels:
[1] = system: HUVEC; assay: Endothelial cell migration assay (Transwell, VEGF); format: cell-based, human; settings: VEGF 100 ng/ml
Protocol: Cell migration assays were performed using HUVEC. Cells were starved overnight in basal medium containing 0.5% fetal bovine serum, collected, resuspended in the same medium, and seeded at a concentration of 10^5 cells/well on the upper surface of a 24-well transwell insert with a pore size of 8 μm (Millipore, Cambridge, Mass.). The insert was placed in a six-well plate that contained medium plus PBS, medium plus VEGF (100 ng/ml) or VEGF plus sMDA-7 (10 or 50 ng/ml). The plates containing the transwell insert were incubated at 37° C. overnight to allow migration. The next day, the wells were disassembled, membranes were fixed in crystal violet, and the number of cells that had migrated to the lower wells was counted under high-power magnification (×40).

[2] = system: melanoma cell lines; assay: Trypan blue viability, melanoma cell lines (panel); format: cell-based, human
Description: rhMDA-7 (IL-24) protein was purified from 293-mda7 cells using affinity chromatography. Various lots of protein ranged from 30% ->80% purity based upon silver stain. The rhMDA-7 protein was applied to melanoma cell lines, and cells assessed for viability using the Trypan blue assay. […] Treatment of melanoma cells with rhMDA-7 results in rapid activation (via phosphorylation) of STAT3. The cytotoxicity observed in melanoma cells is inhibited by anti-MDA-7 antibodies.
The mechanism of the anti-tumor activity of rhMDA-7 was also evaluated. Melanoma cells were treated with rhMDA-7 protein and assessed for apoptosis using the TUNEL assay. […] These studies were performed with purified rhMDA-7 protein. The melanoma cells have also been treated with supernatant from 293-mda7 cells or control 293 cells. Only the 293-mda7 supernatant causes cell killing.

[3] = system: HUVEC; assay: IP-10 and IFN-γ production by ELISA; format: cell-based, human; settings: 10 ng/ml; 48 h period
Protocol: Furthermore, IFN-γ is a potent inducer of IP-10 (Majumder et al., 1998). […] Studies were conducted to determine whether the antiangiogenic activity of sMDA-7 was mediated by IFN-γ or IP-10. HUVEC were seeded in 6-well plates (1×10^5/well) and treated with sMDA-7 (10 ng/ml). Cell culture supernatant was collected at 6 h, 24 h, and 48 h after treatment, centrifuged at 1200 rpm, and analyzed for IP-10 and IFN-γ protein production using commercially available ELISA kits. Assays were performed as recommended by the manufacturer (R&D systems, Minneapolis, Minn.). […] Cells treated with PBS served as negative controls in these experiments. Samples were analyzed in quadruplicate, and data represented as the average value for each concentration of sMDA-7 tested.

[4] = system: iNOS; assay: iNOS expression in melanoma cell lines (immunostaining of cytospins); format: cell-based, human; design: dose or concentration left out as unconfirmed; settings: A375; 48 h
Protocol: Replication-deficient human type 5 adenovirus (Ad5) carrying the mda-7 gene was obtained from Introgen Therapeutics (Houston, Tex.). The mda-7 gene was linked to an internal CMV-EE promoter and followed by SV40 polyadenylation. Ad-Luc and Ad-CMV polyadenylation (luciferase and empty vector, respectively), were used as control viruses. Cells were plated 1 day before infection. […] Experimental conditions were optimized to achieve MDA-7 protein expression by >70% of cells, based on results of immunohistochemical staining.
[…] At baseline, these melanoma cell lines express high levels of iNOS and are negative for MDA-7. Forty-eight h after vector treatment, the cells were collected, and cytospins were prepared to analyze iNOS expression. […] It has been shown previously that MDA-7 is secreted by Ad-mda7-infected melanoma cells (Lebedova et al., 2002; Mhashilkar et al., 2001).

[5] = system: PAC1 SMC; assay: Cell death after recombinant MDA-7; format: cell-based, rat
Protocol: Cell viability was determined using the Trypan-blue exclusion assay. Briefly, total cells (suspension+trypsinized) were mixed 1:1 with Trypan blue solution (Gibco-BRL) and then observed under a hemocytometer via light microscopy. The percent of blue cells (dead cells) were counted (an average count of 3-5 fields were made).
Cells are plated in chamber slides and treated with MDA-7 protein for 60 minutes and then washed thoroughly with PBS (3×). The cells are then fixed with methanol:acetic acid (95:5 vol:vol) and stained with anti-pStat3 monoclonal antibody (1:1000 dilution; Cell Signalling) for 1 h at 4° C. The cells are then washed 3× with PBS and treated with secondary antibody (1:1000 dilution; Texas Red-conjugated-Rabbit anti mouse IgG; Sigma) for 1 h at 4° C. The cells are then washed and examined under fluorescence microscopy.

[6] = system: HUVECs; assay: Clonogenic survival of endothelial cells after irradiation; format: cell-based, human; settings: MDA-7 protein 10 ng/ml; angiostatin, endostatin 100 ng/ml; 12 h before irradiation
Protocol: Twelve hours after seeding HUVECs in 4-well plates (Nunc, Roskilde, Denmark), medium was replaced with serum/growth factor-free medium. After serum/growth factor starvation for 12 hours, cells were treated with complete medium containing either MDA-7 protein (10 ng/ml) (removed from cultures of 293 cells), angiostatin (100 ng/ml), or endostatin (100 ng/ml). Twelve hours later, cells were irradiated with ^137CS unit (3.4 Gy/min) at room temperature, trypsinized and counted. Known numbers of cells were replated in 60 mm culture dishes and incubated to allow macroscopic colony development. Colonies were counted after 14 days, and the percent plating efficiency and surviving fractions following given treatments were calculated based on the survival of non-irradiated cells.

[7] = system: bFGF-induced angiogenesis; assay: In vivo Matrigel plug angiogenesis assay; design: species or system athymic nude mice; settings: 12.5 ng in Matrigel with 60 ng bFGF; 10 days
Protocol: To determine the antiangiogenic activity of sMDA-7, an in vivo angiogenesis assay was performed. Briefly, sMDA-7 (12.5 ng) and bFGF (60 ng) was mixed with 500 μl of Matrigel (Beckton Dickinson, Bedford, Mass.) on ice and injected subcutaneously into athymic nude mice. Animals receiving Matrigel containing only bFGF (60 ng) served as positive controls and animals receiving Matrigel containing no growth factor served as negative controls. Each group comprised of five animals and the experiments were performed twice. Animals were sacrificed 10 days after injection. The Matrigel plugs were recovered, photographed, and subjected to hemoglobin analysis as previously described (Pessaniti et al., 1992).

B1: sMDA-7: soluble secreted human MDA-7 (IL-24) protein purified from stably transfected 293-mda-7 cells (protein)
chain: AQGQEFHFGPCQVKGVVPQKLWEAFWAVKDTMQAQDNITSARLLQQEVLQNVSDAESCYLVHTLLEFYLKTVFKNYHNRTVEVRTLKSFSTLANNFVLIVSQLQPSQENEMFSIRDSAHRRFLLFRRAFKQLDVEAALTKALGEVDILLTWMQKFYKL
concentration giving complete inhibition of migration [1]: 50 ng/mL
endothelial cell migration in response to VEGF [1]: inhibited endothelial cell migration significantly
death in melanoma cells ([2]; 0-20 ng/ml, 4 days): dose-dependent death
melanoma lines showing cytotoxicity ([2]; 40 ng/ml for 3 days): 5 of 6
induced secretion of IFN-γ [3]: < 30 pg/mL
induced secretion of IP-10 [3]: < 32 pg/mL
iNOS expression [4]: clear down-regulation
cell death [5]: No statistically significant increase in cell death
radiosensitization of HUVECs [6]: sensitized
bFGF-induced angiogenesis (hemoglobin) [7]: significantly inhibited
